From the DeepSol protein solubility set

Assay: soluble on expression in E. coli; label from the status in PepcDB or PDB records
For “MGHHHHHHGGHMSLSAYKTVVVGTDGSDSSMRAVDRAAQIAGADAKLIIASAYLPQHEDARAADILKDESYKVTGTAPIYEILHDAKERAHNAGAKNVEERPIVGAPVDALVNLADEEKADLLVVGNVGLSTIAGRLLGSVPANVSRRAKVDVLIVHTTEGGS”, the “soluble on expression in E. coli” value was “soluble”.
With “SEQTEVLKPRTLADLIRILHQLFAGDEVNVEEVQAIMEAYESDPTEWAMYAKFDQYRYTRNLVDQGNGKFNLMILCWGEGHGSSIHDHTNSHCFLKMLQGNLKETLFAWPDKKSNEMVKKSERVLRENQCAYINDSVGLHRVENISHTEPAVSLHLYSPPFDTCHAFDQRTGHKNKVTMTFHSKFGIRTPNATSGSLENN” the “soluble on expression in E. coli” value was “soluble”.
With “MGSDKIHHHHHHMTVEPLHILHLISTSGLFGAERVLLELASQSRSLGMHVTVAALKNSRNPNTELAEAARGAGLPTLVVPCGGRFDAGVVGILTEEIRKSGTQIIHSHNYKSNYYARQAAELSGARWIVTNHGRRAGFKLFLYALLDAMLVRKADRVVAVSPKIADRLAVLGIGRDGLSVIDNGVDFSRFESLPTKADAGNVLGVAGSSYVIGTVGALTEEKGHRHLLQAVKSVRKSIPNVVCVVVGDGPERRRLEQLAREEGIEQTAIFTGKRDDVPSILPRFDLFVLPSLSEGLPMALLEAQAAKVPAIATNVGAIATVINNGVTGVVVSPGDVPALAEAIIRSHDEADKARCMALKGYERVKVHYSADTMAQRYIEIYRGMIGAGGAIG” the “soluble on expression in E. coli” value was “not soluble”.
In the case of “TTNWLNYRAGSVAYEQAAEPLELLTEARIHAQRARTDETLALVWRQSLENSNHTFSTTLKRVDKALSKPGLDPAEVAAARNAMNTWRASHEELTNFLNSGRYEEALKLTTEGPSAFTDLDAALDSLIDSTRVRLRTEIRGVDTTQVN”, the “soluble on expression in E. coli” value is reported as “not soluble”.
In the case of “MSTWRDSLLPASFRGVGFFIEKAVVPVGRKGQLHEFPQRDEPYFESLGKQAQVHTLTAFIVGRDCFEKRDNLLQALEKDGAGELVHPWLGRMQVQV”, the “soluble on expression in E. coli” value is reported as “not soluble”.
For “MRIGQYQLRNRLIAAPMAGITDRPFRTLCYEMGAGLTVSEMMSSNPQVWESDKSRLRMVHIDEPGIRTVQIAGSDPKEMADAARINVESGAQIIDINMGCPAKKVNRKLAGSALLQYPDVVKSILTEVVNAVDVPVTLKIRTGWAPEHRNCEEIAQLAEDCGIQALTIHGRTRACLFNGEAEYDSIRAVKQKVSIPVIANGDITDPLKARAVLDYTGADALMIGRAAQGRPWIFREIQHYLDTGELLPPLPLAEVKRLLCAHVRELHDFYGPAKGYRIARKHVSWYLQEHAPNDQFRRTFNAIEDASEQLEALEAYFENFA”, the “soluble on expression in E. coli” value was “not soluble”.
For “AHHHHHHGSKFNEFKTPQIDPIFDLYVAYGYVESLIRGGAKEATLIPHGASYLIQTDVSNEEFRHGLVDALSEMLSLHIALARHSPREGGKLVSDADFSAGANINNVYWDSVPRNLEKVMKDLEKKRSVKGTATIPITLMPSAGKYMLKHFGVQGGNPIKVDLLNYALAWVGFHYYTPYIKYAKGDTTWIHIYQIAPVEEVDMISILSLKDLKMHLPHYYESNLDFLINRRLALLYHLLHSESLGALELFTEKEFVIHSYTLERSGNNQAIRSFEEEEIGKLMDFLWKLKRRDFYHAIKFIDDLLKKATEGALALIDAIMNERLEGFYTALKLGKKAGVVSSREIVAALEDIICER”, the “soluble on expression in E. coli” value was “not soluble”.
For “MSSTALLPPNTDQVLSRRLHGKAAEKKTGLAAIASKDVDEQSRKLQEYFEFWDRNHENESEEDRARRIDGYKSVVNSYYDLATDLYEYGWSQSFHFSRFYKGEAFAQSIARHEHYLAYRMGIKPGSRVLDVGCGVGGPAREITEFTGCNLVGLNNNDYQISRCNNYAVKRNLDKKQVFVKGDFMHMPFEDNTFDYVYAIEATVHAPSLEGVYGEIFRVLKPGGVFGVYEWVMSDDYDSSIPKHREIAYNIEVGDGIPQMVRKCDAVEAIKKVGFNLLEEDDLTDHDNPDLPWYYPLTGDITKCQNIWDVFTVFRTSRLGKLVTRYSVQFLEKIGVAAKGTSKVGDTLAIAQKGLIEGGETHLFTPMFLMIAKKPETDA”, the “soluble on expression in E. coli” value was “soluble”.
In the case of “DSVIVVDNVPQVGPDRLEKLKNVIHKIFSKFGKITNDFYPEEDGKTKGYIFLEYASPAHAVDAVKNADGYKLDKQHTFRVN”, the “soluble on expression in E. coli” value is reported as “soluble”.
In the case of “MNSRQMYEKIKERLVAHPHWTFRFDAKQDAMRVEDRRTKKGVTISLPGVIAKWHEQKDEAVREVVYYVEQTLKTMEEDAALSGNERNIYPVIRSASFPTETKEGVPLLFDDHTAETRIYYALDLGKTYRLIDERMLEKDKWSRERVKEIARFNVRSLPTPVKEARVADNVFYFVNPNDGYDASRILNESFLADMRARVEGTMAVAVPHQDVLVIADVRNDIGYDVLAQMTMSFFAGGRVPITALSFLYENGKLEPIFILGKKRRT”, the “soluble on expression in E. coli” value is reported as “not soluble”.
For “MKKFALATIFALATTSAFAGFNGNNSQGGFQQAAPAAISVKQALSAADNSMITLVGNITQQIDDDEFWFTDGTGQIKIEIKKRVWNGLNVDSKDKVKIYGKLDNEVFEKAELDVLRIEKAE”, the “soluble on expression in E. coli” value was “not soluble”.
In the case of “MKIPSLQSNFNFSAPAGYSAPIAPNRAENAYADYVLDIGKRIPLSAADLSNVYESVIRAVHDSRSRLIDQHTVDMIGNTVLDALSRSQTFRDAVSYGIHNEKVHIGCIKYRNEYELNEESSVKIDDIQSLTCNELYEYDVGQEPIFPICEAGENDNEEPYVSFSVAPDTDSYEMPSWQEGLIHEIIHHVTGSSDPSGDSNIELGPTEILARRVAQELGWSVPDFKGYAEPEREAHLRLRNLNALRQAAMRHEENERAFFERLGTISDRYEASPDFTEYSAVSNIGYGFIQQHDFPGLAINDNLQDANQIQLYHGAPYIFTFGDVDKHNQQ”, the “soluble on expression in E. coli” value is reported as “soluble”.
With “MGSDKIHHHHHHMSLSPQASAAPEQGYNFAYLDEQTKRMIRRGLLKAVAIPGYQVPFGGREMPLPYGWGTGGMQVTAAILGADDVLKVIDQGADDTTNAVSIRRFFARTAGVATTERTPEATVIQTRHRIPETALSGEQIMVYQVPIPEPLRFIEPSEAETRTMHALDDYGVMHVKLYEDIATFGHIATSYAYPVTVDERYVMDPSPIPKFDNPKLDMNPALMLFGAGREKRLYAVPPFTRVASLDFEDHPFEVQRWEESCAFCGSHESYLDELIVDDRGGKRFVCSDTDYCTQRRARQEEGEDAQ” the “soluble on expression in E. coli” value was “not soluble”.
In the case of “KIVAVTACPTGIAHTYMAADALMKAAPKHNVQIKVETQGAMGIENQLTPHDIAQADRVLIVSDIEIEQPGRFEGTRKIQIPIEEVLLNVDKVFL”, the “soluble on expression in E. coli” value is reported as “not soluble”.
In the case of “MLSKKRSMSFAKRTLLSVSLSLVSGLSFAKMYELPEDGSRLIGRLENHVVQQGETMANIAKHYDVGMLALMAANKGVDPFLPQEGRVLTIPSQLILPEVPHQGIVINLAELRLYYFPEGEDVVHVFPVGIGRIGRDTPVMTTSISQKRPNPTWTPPASIRAEYRAKGVDLPAVVPAGPDNPLGLFALRLAYGNGEYLIHGTNKDFGIGMRVSAGCIRMDPSDIEWLFDKVRRGEKVNIINQPVKVSLEPDRSVFVEAHEPLTRSNGEKDHLQVPKELGWWLNEFGLTNVKAKAVIAAQNGVPVEITAP”, the “soluble on expression in E. coli” value is reported as “not soluble”.
In the case of “MGSDKIHHHHHHVTPLPIVDPGPPVLYDVEHVTSYRYALPVTVSHQCAHLKPRSFATQQVLSTQLGATPLPEIRSERIDYFGNTVTSFSLSEPHESLTVVAQSQVRILPPTLPAAADTPRWEEVAERLRLGFGADTLDACQMLYPSGHVKTLPEVRAYALPSFPPDRPILEAAIDLTGRIHADFTYDPTATTVATPLAEVLAKRRGVCQDFAHLQIACLRSMGLAARYVSGYVLTCSTESGERLEGGDASHAWVSLYVPCAAAPNGGWIDLDPTNDKLITREHVTVAWGRDFEDVSPIKGVMLGGGAQTVSVAVTLRPRTNGPRARTESPA”, the “soluble on expression in E. coli” value is reported as “not soluble”.
With “AQFQYPFKEVYYLETSPRAHRVILYTKTDRLEFTASLEEVFKQEPRLLQCHRSFLINPANVVHLDKKEKLLFFPNGGSCLIARYKVREVSEAINKLH” the “soluble on expression in E. coli” value was “not soluble”.
With “MTLIILEGPDCCFKSTVAAKLSKELKYPIIKGSSFELAKSGNEKLFEHFNKLADEDNVIIDRFVYSNLVYAKKFKDYSILTERQLRFIEDKIKAKAKVVYLHADPSVIKKRLRVRGDEYIEGKDIDSILELYREVMSNAGLHTYSWDTGQWSSDEIAKDIIFLVELEHHHHHH” the “soluble on expression in E. coli” value was “soluble”.
In the case of “MSLTKLLLLQKIKDPDLKQIHRDFPDLELINADEMTNELVDQIEIVYGQFSHLQKGYGFSSWFGKVVPNGKSLKWVQTISAGIDFLPLDQLAKRGIMVSNMSGLHSEAISENVLAYILILNRGLKFALANQAKQSWDFNFPKIKQLQDKKILIFGTGAIGSAIAKILQAFDVEVIGVNRHGKDLKYFDRVITQEQLGDFADADYLISDMPLTTQTRGYFDSDFFSLFKKQPIFINVGRGPSVVEKDLIKALKADILSGAALDVFEHEPLASDSPLWKMENVIVTPHSSALLEHFQRDAYKIFGPNLKSYLANGEGHHHHHH”, the “soluble on expression in E. coli” value is reported as “not soluble”.
In the case of “RIPVVGITGSKGMTTIARFVASLLTLSGRRTGLACSSGLYLDHRKIDHGNCANHKSARRILMNRTVEAAVFENGFDTMLEEGLPYDSCQVGIVTRIEPALHFAHQWIDTSEQVFKVLRTQVDVVSPTGGKREGDILPEIILPTGAAILNAQDPMLVQMADLCQGEVIYISCDPTLPVISVHRQEGTGPTRGKRAVTVRNWEILLIDGTAETILIRLDELQAKTGNHPVETAHLLAGVGAGWALGMSPDLIRTGLITFLQHQEKQSIVYQTF”, the “soluble on expression in E. coli” value is reported as “not soluble”.
In the case of “MARTLFLEEGPMFFEKIAPYTYRIPRQGKMRVDAVFFASKEILKDLEAENYASLQQLMNVATLPGIVEPALAMPDIHWGYGFPIGGVAAFDPEEGGVVSPGGVGFDINCGVRLLASHLTLEDLLPRQKELADALYRLVPSGVGSERRDVRFSKRELKEILKEGAGWLVKRGYGYPEDVRFIESQGRLPWANPDKVSERAFERGAPQIGTLGSGNHFLEVQYVDEVYDEEAALAFGLFKGQVTVLIHTGSRGLGHQVCQDYVERFLKVAPRYGIELVDKQLAAAPIKSPEGQDYLQAMAAAANFAFANRQLIAHFVREAFEKVGFTPRDHGLRVLYDLAHNNAKFEEHRGRRVLVHRKGATRAFGPGHPEVPEEYRRVGQPVLVPGDMGRYSYVLAGTEKAMEVSFGSSCHGAGRKMSRHQAKKVARERNLVKELAERGILVRAATRATVDEEMPEAYKDVSLVVEAVEGAGIGKKVARLRPLIVVKG”, the “soluble on expression in E. coli” value is reported as “soluble”.
For “MGHHHHHHHHHHSSGHIEGRHMYTVMLDLKGRSVLVVGGGTIATRRIKGFLQEGAAITVVAPTVSAEINEWEAKGQLRVKRKKVGEEDLLNVFFIVVATNDQAVNKFVKQHIKNDQLVNMASSFSDGNIQIPAQFSRGRLSLAISTDGASPLLTKRIKEDLSSNYDESYTQYTQFLYECRVLIHRLNVSKSRKHELLTEIIDDQYRLSLVKQREFLQQIEKYK”, the “soluble on expression in E. coli” value was “soluble”.
In the case of “MGSDKIHHHHHHMDGSSQEGEKKKKVYEVKTFPISFALGENQENITITTQTPSKPSKEKKFHKARMLHKQGKIAEAKKYYQQLINEGFNDHRVFSNYGVILAQLGKLKEAEISTRKAIEMQPNYAEAHSNLGIILNDLGKLEEAEICQRKAIKIKPNLTGAAWNLYGLANTIKEAEERVNQVLKIDENHVEAQLHLSALKLHQGDQSLFDNLTKSTHKDHAITRSIKWVANLPKLPELFFYRWALFDSMTKKSKKDRPFYEFGVWRGASFRYLINTFKKGYGFDTFEGLPEDWHHEAQGTYSAEGIIPNIEGGEFIAGKFEDTLPTFYSKPRPMASIINFDADLYSSTLCALNCSKPVIDKDTILIFDEFIISENWEQDEYKALNEFCSKNNLTYEVLAVSYFEKQVAVKLIGV”, the “soluble on expression in E. coli” value is reported as “not soluble”.
